Measured values taken from patent publication US20260265385A1 (ANAPTYSBIO, published 2026).
Changes are numbered by the printed parent chain.

T1: recombinant human IL-2Rβ (extracellular domain, Ala1-Thr215) (human, UniProt P14784 27-240)
T1 construct: extracellular domain; Analyte in SPR; Ala1-Thr215 is counted on the mature protein; also called human LL-2Rβ; Human IL-2RB
T1 sequence (looked up): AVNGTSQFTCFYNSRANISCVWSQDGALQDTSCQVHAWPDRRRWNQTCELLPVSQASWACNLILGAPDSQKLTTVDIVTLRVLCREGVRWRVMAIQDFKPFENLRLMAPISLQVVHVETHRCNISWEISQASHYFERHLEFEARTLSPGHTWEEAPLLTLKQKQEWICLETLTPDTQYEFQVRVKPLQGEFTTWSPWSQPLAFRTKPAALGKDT

T2: recombinant cynomolgus IL-2Rβ (extracellular domain, Ala1-Thr215) (cynomolgus, UniProt Q38J85 27-240)
T2 construct: extracellular domain; Analyte in SPR; also called cynomolgus LL-2Rβ; Cyno IL-2RB
T2 sequence (looked up): T1 sequence (looked up) with Q7R, A66T, T74A, L83M, V92M, E127K, L158M

T3: cynomolgus IL-2Rβ (CD122), full-length, on cells (cynomolgus, UniProt Q38J85 27-551)
T3 construct: whole, on cells; Co-expressed with full-length cynomolgus IL-2Rγ on CHO-K1 cells; also called cynomolgus IL-2Rβγ; cyno IL-2βγ
T3 sequence (looked up): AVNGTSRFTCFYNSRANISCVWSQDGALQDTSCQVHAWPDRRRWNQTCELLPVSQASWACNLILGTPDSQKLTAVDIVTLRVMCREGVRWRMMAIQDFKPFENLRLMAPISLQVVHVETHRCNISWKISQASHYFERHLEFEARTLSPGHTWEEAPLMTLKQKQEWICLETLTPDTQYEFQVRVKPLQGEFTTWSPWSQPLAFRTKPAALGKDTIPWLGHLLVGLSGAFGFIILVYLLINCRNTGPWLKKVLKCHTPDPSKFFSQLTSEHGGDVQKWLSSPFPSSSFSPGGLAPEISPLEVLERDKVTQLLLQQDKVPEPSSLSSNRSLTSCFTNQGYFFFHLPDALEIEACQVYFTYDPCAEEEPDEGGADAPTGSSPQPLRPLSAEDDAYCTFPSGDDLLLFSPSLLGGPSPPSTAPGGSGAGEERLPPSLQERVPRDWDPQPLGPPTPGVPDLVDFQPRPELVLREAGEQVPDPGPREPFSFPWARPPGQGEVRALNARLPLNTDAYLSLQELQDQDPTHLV

T4: human IL-2Rβ (CD122), full-length, on cells (human, UniProt P14784 27-551)
T4 construct: whole, on cells; also called human IL-2Rβγ; human IL-2βγ
T4 sequence (looked up): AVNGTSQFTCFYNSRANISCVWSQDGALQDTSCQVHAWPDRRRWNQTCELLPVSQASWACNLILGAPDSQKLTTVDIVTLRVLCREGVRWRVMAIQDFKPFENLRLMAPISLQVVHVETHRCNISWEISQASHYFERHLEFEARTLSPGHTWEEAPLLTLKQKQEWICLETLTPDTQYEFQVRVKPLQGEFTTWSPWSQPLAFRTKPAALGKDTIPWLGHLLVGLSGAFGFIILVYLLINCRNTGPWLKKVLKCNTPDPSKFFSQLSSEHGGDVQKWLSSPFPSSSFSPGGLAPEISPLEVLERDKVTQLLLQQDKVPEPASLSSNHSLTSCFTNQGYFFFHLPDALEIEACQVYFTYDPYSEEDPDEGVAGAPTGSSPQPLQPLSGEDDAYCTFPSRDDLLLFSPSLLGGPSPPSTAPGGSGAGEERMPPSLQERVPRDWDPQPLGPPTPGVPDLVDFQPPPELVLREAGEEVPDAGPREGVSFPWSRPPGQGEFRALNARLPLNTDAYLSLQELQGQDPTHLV

B1: APE15446 (antibody)
heavy: not shown
light: EIVMTQSPATLSVSPGERATLSCRASQIISNNLHWYQQKPGQAPRLLIIYGLQSISGIPARFSGSRSGTEFTLTISSLQSEDFAVYFCQQSNNFPWTFGQGTKLEIKRTVAAPSVFIFPPSDEQLKSGTASVVCLLNNFYPREAKVQWKVDNALQSGNSQESVTEQDSKDSTYSLSSTLTLSKADYEKHKVYACEVTHQGLSSPVTKSFNRGEC
notes: M10-1275 series
B2: APE15148 (antibody, V domains shown)
VH: QVQLVQSGAEVKKPGASVKVSCKASGYTFSRYWIQWVRQAPGQGLEWMGEILPGSGSINHNEKFQGRVTMTRDTSTSTVYMELSSLRSEDTAVYYCTRHYGSFDYWGQGTTVTVSS
VL: DIQMTQSPSSLSASVGDRVTITCKASQNVGTDVAWYQQKPGKAPKSLIYSASYRYSGVPSRFSGSGSGTDFTLTISSLQPEDFATYFCHQYESYPFTFGQGTKLEIKR
notes: M6-p1625 series
B3: APE15428 (antibody)
heavy: not shown
light: DIQMTQSPSSLSASVGDRVTITCKASQNVGTDVAWYQQKPGKAPKSLIYSASYRYSGVPSRFSGSGSGTDFTLTISSLQPEDFATYFCHQYESYPFTFGQGTKLEIKRTVAAPSVFIFPPSDEQLKSGTASVVCLLNNFYPREAKVQWKVDNALQSGNSQESVTEQDSKDSTYSLSSTLTLSKADYEKHKVYACEVTHQGLSSPVTKSFNRGEC
notes: M6-p1625 series
B4: APE15142 (antibody, V domains shown)
VH: EVQLVQSGAEVKKPGATVKISCKVSGFNFKYSLIHWVQQAPGKGLEWMGWIDNEAGETEYAPGFQDRVTITADTSTDTAYMELSSLRSEDTAVYYCARGGPWFLSYWGQGTTVTVSS
VL: EIVMTQSPATLSVSPGERATLSCRASQIISNNLHWYQQKPGQAPRLLIIYGLQSISGIPARFSGSRSGTEFTLTISSLQSEDFAVYYCQQSNNWPWTFGQGTKLEIKR
notes: M10-1275 series
B5: APE15137 (antibody, V domains shown)
VH: B4 VH with I34M, N53S, A55N
VL: B4 VL
notes: M10-1275 series
B6: APE15171 (antibody, V domains shown)
VH: B4 VH
VL: B4 VL with Y87F, W94F, W96Y
notes: M10-1275 series
B7: APE15144 (antibody, V domains shown)
VH: B4 VH with Y31L
VL: B4 VL
notes: M10-1275 series
B8: APE15143 (antibody, V domains shown)
VH: B4 VH with I34M
VL: B4 VL
notes: M10-1275 series
B9: APE15168 (antibody, V domains shown)
VH: B4 VH with Y31E
VL: B4 VL with Y87F, W94F, W96Y
notes: M10-1275 series
B10: APE15145 (antibody, V domains shown)
VH: B4 VH with Y31L, I34M
VL: B4 VL
notes: M10-1275 series
B11: APE15172 (antibody, V domains shown)
VH: B4 VH
VL: B4 VL with Y87F, W96Y
notes: M10-1275 series
B12: APE15136 (antibody, V domains shown)
VH: B4 VH with Y31E, I34M, N53S, A55N
VL: B4 VL
notes: M10-1275 series
B13: APE15167 (antibody, V domains shown)
VH: B4 VH with Y31E, I34M, N53V
VL: B4 VL
notes: M10-1275 series
B14: APE15139 (antibody, V domains shown)
VH: B4 VH with Y31E, N53V
VL: B4 VL
notes: M10-1275 series
B15: APE15138 (antibody, V domains shown)
VH: B4 VH with Y31L, I34M, N53S, A55N
VL: B4 VL
notes: M10-1275 series
B16: APE15173 (antibody, V domains shown)
VH: B4 VH
VL: B4 VL with Y87F, W94F
notes: M10-1275 series
B17: APE15135 (antibody, V domains shown)
VH: B4 VH with Y31D, I34M, A55N
VL: B4 VL
notes: M10-1275 series
B18: APE15059 (antibody, V domains shown)
VH: B4 VH with Y31D, I34M, N53S, A55N
VL: B4 VL
notes: M10-1275 series
B19: APE15276 (antibody, V domains shown)
VH: B4 VH with Y31E, G99S
VL: B4 VL with Y87F, W94F
notes: M10-1275 series
B20: APE15058 (antibody, V domains shown)
VH: B4 VH with Y31D, I34M, N53S, A55N
VL: B4 VL with I49Y, Y87F
notes: M10-1275 series
B21: APE15141 (antibody, V domains shown)
VH: B4 VH with Y31E, I34M
VL: B4 VL
notes: M10-1275 series

Legend:
[1] = target: T1, recombinant human IL-2Rβ (extracellular …); assay: SPR, antibody captured on Protein A chip
Experimental: (§1) Surface plasmon resonance (SPR) was used to determine the binding affinities. The M6-1625 and M10-1275 antibodies were captured onto a Cytiva Protein A Chip for 60 seconds at 0.5 μg/mL for 60 seconds. The antibodies were exposed to recombinant human LL-2Rβ or cynomolgus LL-2Rβ (corresponding to residues Ala1-Thr215 of the extracellular domains excluding the signal peptide) at typical concentrations ranging from 0.4 nM to 11 nM with typical 300 second associations and 1200 second dissociations using a BiacoreS200 instrument. Sensorgrams were fit globally using a 1:1 binding model in the Biacore T200 Evaluation Software to calculate on- and off-rates and KD values.

[2] = target: T2, recombinant cynomolgus IL-2Rβ …; assay: SPR, antibody captured on Protein A chip
Experimental: as §1

[3] = target: T3, cynomolgus IL-2Rβ (CD122), full-length, …; assay: flow cytometry on CHO-K1 cells expressing cynomolgus IL-2Rβ and IL-2Rγ (panel 'Cell Binding cyno IL-2Rbg CHO'); unit taken from the axis 'Antibody Concentration nM'
Experimental: (§2) CHO-K1 cells stably expressing either full-length human or cyno IL-2Rβ and IL-2Rγ cultured in the log phase of growth were harvested with Accutase solution, resuspended in FACS buffer, and plated at 100,000 cells/well in a 96 well plate. The concentrations indicated in FIG. 5 of antibodies starting at 100 nM and diluted 1:3 were incubated with the cells for 45 minutes on a plate shaker at4° C. After washing, cells were incubated with goat anti-human kappa DyL650 secondary antibody for 20 minutes on a plate shaker at4° C. Cells were washed again and analyzed on a FACSArray flow cytometer. Data were analyzed using Novoexpress and GraphPad Prism software.

[4] = target: T4, human IL-2Rβ (CD122), full-length, on …; assay: flow cytometry on CHO-K1 cells expressing human IL-2Rβ and IL-2Rγ (panel 'Cell Binding human IL-2Rbg CHO'); unit taken from the axis 'Antibody Concentration nM'
Experimental: as §2

Row | Binder | Kd [1] | Kd [2] | EC50 [3] | EC50 [4]
1 | B1 | 0.0107 nM | 0.00415 nM | – | –
2 | B2 | 0.0945 nM | 0.0715 nM | 0.103 nM | 0.105 nM
3 | B3 | 0.0567 nM | 0.0765 nM | – | –
4 | B4 | 0.0222 nM | 0.0105 nM | 0.163 nM | 0.147 nM
5 | B5 | 0.0518 nM | 0.0174 nM | – | –
6 | B6 | 0.276 nM | 0.0522 nM | – | –
7 | B7 | 0.0297 nM | 0.0116 nM | – | –
8 | B8 | 0.0251 nM | 0.00972 nM | – | –
9 | B9 | 0.324 nM | 0.0379 nM | – | –
10 | B10 | 0.0296 nM | 0.0108 nM | – | –
11 | B11 | 0.116 nM | 0.0271 nM | – | –
12 | B12 | 0.0481 nM | 0.0114 nM | – | –
13 | B13 | 0.045 nM | 0.00655 nM | – | –
14 | B14 | 0.0352 nM | 0.00923 nM | – | –
15 | B15 | 0.0436 nM | 0.0163 nM | – | –
16 | B16 | 0.0184 nM | 0.00509 nM | – | –
17 | B17 | 0.0282 nM | 0.0105 nM | – | –
18 | B18 | 0.0697 nM | 0.0159 nM | – | –
19 | B19 | 0.0178 nM | 0.00599 nM | – | –
20 | B20 | 0.154 nM | 0.0223 nM | – | –
21 | B21 | 0.022 nM | 0.0103 nM | – | –
